Measurements from the Human Domainome abundance scans (Beltran et al. 2025).

B1: POU domain, class 3, transcription factor 2, residues 262 to 338; numbered along this chain, P20265 (parent)
chain: EDTPTSDDLEQFAKQFKQRRIKLGFTQADVGLALGTLYGNVFSQTTICRFEALQLSFKNMCKLKPLLNKWLEEADSS

Variants of: B1
Test: abundance fitness (aPCA) (normalised: wild type 0, dead -1); higher = more abundant; growth selection in yeast, the domain comes from the species named
Conditions: Homo sapiens

Abundance fitness: each site, then its substitutions
I47: A -0.751, Y -0.339, N -0.798, H -0.65, C -0.763, V -0.121, S -0.782, E -0.772, M -0.58, Q -0.723, G -1, D -0.786, F -0.787, L -0.267, R -0.689, P -1.02, T -0.636, K -0.701
S56: R -0.366, D -0.093, K -0.129, Q -0.385, C -0.303, I -0.662, P 0.044, N -0.145, G -0.101, A -0.345, L -0.633, W -0.801, E -0.128, T -0.135, M -0.81
A52: E 0.048, M -0.091, Y -0.534, C -0.137, Q 0.056, K -0.07, T -0.02, G -0.078, R -0.181, L -0.111, S 0.015, N 0.008, V -0.615, I -0.632, H -0.213, W -0.552, D 0.003, F -0.844
Y38: L -0.41, R -0.27, E -0.199, I -0.298, C -0.065, H -0.029, G -0.074, F -0.036, V -0.103, M -0.331, W -0.341, K -0.234, S -0.012, P -0.36, N -0.043, D -0.036, Q -0.141, T 0.032, A -0.069
Q54: N -0.113, K 0.045, W -0.436, F -0.933, D -0.035, Y -0.726, G -0.23, M -0.294, E -0.03, H -0.2, R -0.156, V -0.535, T -0.068, L -0.316, S -0.157
T46: Q -0.058, H -0.208, E -0.035, A -0.186, N -0.393, D 0.064, G -0.643, K -0.416, L -0.103, Y -0.547, M -0.185, R -0.376, P -0.697, W -0.307, V -0.115, I -0.1, C -0.317, F -0.325
S43: D 0.093, Y -0.486, A -0.209, N 0.01, M -0.569, K -0.132, L -0.485, G -0.12, I -0.768, C -0.042, Q -0.166, W -0.5, H 0.007, F -0.57, E -0.031, V -0.703, P -0.102, R -0.206
N40: H 0.06, L -0.173, D 0.016, S 0.022, T -0.063, K -0.016, C 0.028, E 0.108, P -0.005, W -0.281, G 0.035, Q 0.069, Y -0.007, M -0.107, F -0.173, R 0.023, I -0.045, A -0.055
Q44: T -0.018, M -0.145, N -0.133, W -0.399, L -0.248, D -0.018, S 0.008, G 0.019, P 0.023, V -0.098, H -0.031, F -0.373, R -0.066, A 0.033, K -0.009
L55: G -0.61, S -0.504, H -0.266, C -0.318, T -0.583, W -0.645, Y -0.285, K -0.409, V -0.573, F -0.277, D -0.369, N -0.633, E -0.298, I -0.364, P -0.586, Q -0.506, A -0.567
V41: E 0.034, W 0.004, Y -0.12, H 0.039, P -0.042, C 0.036, T 0.009, D 0.047, I -0.157, M 0.012, A 0.017, S -0.017, G 0.021, R -0.023, K 0.065, N 0.008
E51: K -0.666, L -1.05, D -0.638, Q -0.803, M -1, I -0.503, V -0.965, G -0.818, S -0.88, A -0.855, Y -0.999, P -0.795, N -0.886, R -0.638
F42: A -0.012, Q 0.072, N -0.582, T -0.061, K -0.148, Y 0.056, I -0.037, L 0.053, S -0.268, R -0.292, G -0.397, M -0.004, C -0.006, H -0.138, P -0.368
G39: C -0.528, F -0.621, D -0.079, L -0.754, E -0.207, N -0.012, V -0.897, Y -0.533, I -0.808, P -0.023, H -0.19, A -0.314, W -0.715, M -0.624, R -0.25, K -0.219, T -0.325, S -0.321
C48: F -0.2, T -0.064, R 0.004, I -0.134, S 0.029, A 0.086, V -0.099, H -0.029, W -0.108, M 0.059, L -0.152, D 0.052, G 0.022, K 0.066, Q 0.134, E 0.085, N -0.071, P -0.115
R49: G -0.242, Q 0.045, Y -0.499, V -0.868, K 0.05, C -0.691, E 0.026, D 0.006, F -0.694, M -0.125, H -0.314, S -0.175
F50: R -0.886, K -0.711, L -0.487, A -0.763, S -0.821, Y -0.412, I -0.675, Q -0.624, M -0.485, W -0.749, E -0.85, T -0.682, G -0.839, V -0.682, P -0.756
F57: I -0.049, L -0.077, P -0.063, C -0.516, R 0.02, M -0.046, K 0.026, T 0.01, N 0.031, S -0.053, E -0.071, V -0.033, Q -0.022, G -0.246, H -0.015, D -0.105
T45: R -0.005, L -0.127, Y -0.338, N -0.08, I -0.213, S -0.013, G -0.097, H -0.066, Q 0.005, P -0.261, E 0.143, K 0.053, F -0.104, C -0.163
L37: N -0.121, T 0.048, P -0.293, H -0.194, S -0.093, W -0.201, Y -0.157, Q -0.027, I 0.063, V -0.042
L53: D -0.411, S -0.007, M 0.017, P -0.961, T -0.138, E -0.311, N -0.022, H -0.017, Y 0.018, F -0.09, Q -0.034, K -0.06, A 0.016, C 0.044, V -0.009
